According to paper PMC3182822:
pKi: −log10 of the molar value.

Molecular target: trypsin from bovine pancreas (bovine)
Experiment: enzyme inhibition kinetics

Chain of trypsin from bovine pancreas (bovine) (P00760 24-246): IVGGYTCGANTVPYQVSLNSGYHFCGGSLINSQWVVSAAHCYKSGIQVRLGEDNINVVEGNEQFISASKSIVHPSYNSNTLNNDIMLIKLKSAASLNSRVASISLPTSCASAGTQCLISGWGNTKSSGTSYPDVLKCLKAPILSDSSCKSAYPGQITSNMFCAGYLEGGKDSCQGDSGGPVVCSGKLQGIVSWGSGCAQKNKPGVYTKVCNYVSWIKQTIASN

ovomucoid trypsin inhibitor (from UniProt P01005 25-210) (natural protein)
pKi: 4.24
